US10081661

Assays:
Test in all cases: cell_activity
[1] = test system: ZFN SBS#47864 (human albumin); details: paired with 47931; HepG2
[2] = test system: ZFN SBS#47171 (human albumin); details: paired with 47079; K562, 75 ng mRNA
[3] = test system: ZFN SBS#47192 (human albumin); details: paired with 47079; K562
[4] = test system: ZFN SBS#47863 (human albumin); details: paired with 47898; K562
[5] = test system: ZFN SBS#47898 (human albumin); details: paired with 47863; K562
[6] = test system: ZFN SBS#47079 (human albumin); details: paired with 47863; K562
[7] = test system: ZFN SBS#47169 (human albumin); details: paired with 47171; HepG2, 100 ng mRNA each
[8] = test system: ZFN SBS#40477 (human albumin); details: paired with 47192; HepG2
[9] = test system: ZFN SBS#47931 (human albumin); details: paired with 47863; K562

“TTTGGGATAGTTATGAATTCAATCTTCA (double strand) [human albumin site]” was tested, and the activity [1] was 21.3 % indels, the activity [2] was 79.4 % indels and the activity [3] was 77.9 % indels. It also gave an activity [4] of 91.9 % indels.

With “CCTATCCATTGCACTATGCTTTATTTAA (double strand) [human/rhesus albumin site]” the activity [5] was 91.9 % indels, the activity [6] was 86.8 % indels and the activity [7] was 22.2 % indels. The activity [8] was 23.7 % indels and the activity [9] was 78.9 % indels.
